pKd: −log10 of the molar value.
Legend:
[1] = test system: LANA peptide (Kaposi's Sarcoma Herpesvirus); assay: fluorescence polarization; conditions: FP: 20 mM HEPES pH 7.5, 150 mM NaCl, 0.5 mM EDTA, 1 mM DTT, 0.05% Triton X-100, 20 C, 50 nM peptide, EMSA: 15 mM HEPES pH 7.5, 150 mM NaCl
[2] = target: Homo sapiens nucleosome core particle (human) (UniProt P68431); assay: fluorescence polarisation

Row | Substance | pKd [1] | pKd [2]
1 | H. sapiens NCP | 5.62 | –
2 | Kaposi's Sarcoma Herpesvirus Latency Associated Nuclear Antigen (LANA) peptide, aa. 4-23 | – | 5.62

Source: paper PMC10450195
